# From the nanobody polyreactivity screen of Harvey et al. (2022)
# Assay: yeast display, Sf9 membrane polyspecificity reagent, FACS + sequencing; frameworks hold sequencing errors
# In short: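 In a synthetic yeast display library (Saccharomyces cerevisiae BJ5465), nanobody expression was induced with galactose for 36–48 hours. FACS gates were set low and high (top ~1%) using anti-HA fluorescence for expression and streptavidin fluorescence for binding of the Sf9 membrane reagent. Each polyreactivity label is drawn from the gate of origin.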
row,Sequence,polyreactivity (PSR sort gate)
1,QVQLVESGGGLVHAGGSLRLSCAASGSIFDWNAMGWYTQAPGKERELVATISWDGGSTYYADSVKGRFTISRDNAKNTVYLQMNSLKPEDTAVYYCATVFTGKPAFYARTKYDYWGQRTQVTVSS,low polyreactivity
2,QVQLVESGGGLVHAGGSLRLSCAASGSIFEFYAMGWYRQAPGKERELVAAITWDDGSTYYADSVKGRFTISRDNAKNTVYLQMNSLKPEDTAVYYCAASASVRGGGADQYVIAFDYWGQGTQVTVSS,low polyreactivity
3,QVQLVESGGGLVHAGGSLRLSCAASGSIFGRNAMGWYRQPPGKERELVARISSRGGSTYYADSVKGRFTISRDNAKNTVYLQMNSLKPEDTAVYYCNRDRTSQTNDYWGQGNQVTVSS,high polyreactivity
4,QVQLVESGGGLVHAGGSLRLSCAASGSIFKVYAMGWYRQAPGKERELVASITSGGRTYADSVKGRFTISRDNAKNTVYLQRNSLKPEDTAVYYCSARSRSKFYYWGQGTQVTVSS,high polyreactivity
5,QVQLVESGGGLVHAGGSLRLSCAASGSIFPVNAMGWYRQAPGKERELVAAITSSGGTTYYADSVKGRFTISRDYAKITVYLLMNSLKPVDTAVYYCAADVDVSYWRMEYWGQGTQVTVSS,high polyreactivity
6,QVQLVESGGGLVHAGGSLRLSCAASGSIFSWYDMGWYRQAPGKERELVADISSGGSTNYADSVKGRFTISRDNAKNTVYLQMNSMKPEDTAVYYCNARLGYLYDYWGQGTQVTVSS,low polyreactivity
7,QVQLVESGGGLVHAGGSLRLSCAASGSIFVGYAMGWYRQAPGKERELVARISRSGTSTYYADSVKGRFTISRDNAKNTVYLQMNSLKPEDTAVYYCNATVSRYSGYQRGHYWRYDYWGQGTQVTVSS,high polyreactivity
8,QVQLVESGGGLVHAGGSLRLSCAASGSIFYEYAMGWYRQAPGKERELVASINRGGGSTYYADSVKGRFTISRDNAKNTVYLQMNSLKPEDTAVYYCAAQWKYRQSYLDYYWGQGTQVNVSS,low polyreactivity
9,QVQLVESGGGLVHAGGSLRLSCAASGSIIEAYAMGWYRQAPGKEMELVAVISTGGGSTSYADSVKGRFTISRDNAKNTVYLQMNSLKPEDTAVYYCAAEYRWSYFRTYYSWGQGTQVTVSS,low polyreactivity
10,QVQLVESGGGLVHAGGSLRLSCAASGSIYVDNAMGWYRQAPGTERELVAVISWIGSSTYYADSVKGRFTISRDNAKYTVYFQMNSLNPEDTAVFYCAAAPSRTLLRQSKYYFWGQGTQVNVSS,low polyreactivity
11,QVQLVESGGGLVHAGGSLRLSCAASGSIYYGNAMGWYIQAPGKERELVARISWSGSNTRYADSVKGRFTISRDNSKITVYLQMNSLKPEDTAVYYCNRGSYQTSFFRYDYWGQGTQVTVSS,high polyreactivity
12,QVQLVESGGGLVHAGGSLRLSCAASGSTFGFYARGWYRQAPGKERELVAAITTGGSTNYADSVKGRFTISRVNAKNTVYLQMYSLKPEDSAVYYCHADVYWNPYYDYDYWGQGTLVTVSS,high polyreactivity
13,QVQLVESGGGLVHAGGSLRLSCAASGSTFHTYDMGWYRKAPWKERELVAAITSRDSTHYADSVKGCFTISRDNAKNTVYLQMNSLKPEDTAVYYCAASAPYLYYRSAYYYWGQGTQVTVSS,low polyreactivity
14,QVQLVESGGGLVHAGGSLRLSCAASGSTFPSYAMGWYRQAPGKERELVAAINSGGGTYYADSVKGRFTISRDNAKNTVYLQRNSLKPEDTAVYYCATSRYDYTKTEGGYWGQGNQVTVSS,low polyreactivity
15,QVQLVESGGGLVHAGGSLRLSCAASGSTFRLYSMGWYRQAPGKERELVAAISSNGVRTYYADSVKGRFTISRDNAKNTVYLQMNSLKPEDTAVYYCAARVYPAYPRGYDYWGQGTQVTVSS,high polyreactivity
16,QVQLVESGGGLVHAGGSLRLSCAASGSTFSWYVMGWYRQAPGKERELVAAISYRGGRTYYADSVKGRFTISRDNAKNTVYLHMNSLKTEDTAVYYCAARGVVDAGRTNRPYDYWGQGTQVTVSS,low polyreactivity
17,QVQLVESGGGLVHAGGSLRLSCAASGSTSVYYAMGWYRQTPGKERELVAAITWDDGSTSYADSVKGRFTISRDNAKNTVYLQMNSLNPEDTAVYYCAKDYEYLGAFNYWGQGTQVTVSS,low polyreactivity
18,QVQLVESGGGLVHAGGSLRLSCAASRYTFVNYAMGWYSQAPGKERELVAAITSRGSSTYYADSVKGRFTLSRDNAKNTVYLQMNSLNPEDTAVYYCYVHVRNHDYWGEGTQVTVSS,high polyreactivity
19,QVQLVESGGGLVHAGGSLRLSCAPSGSNFCFNAMGWYRQAPGKERELVAAIPSRGGSTYYADSVKGRFTISRDNAKNTVYLQMNSLKPEDTAVYYCNADHRDTFIWVGLPHMDYWGQGTQVTVSS,low polyreactivity
20,QVQLVESGGGLVHAGGSLRLSCASSGFTFWKYAIGGYRQAPGKERELVATISLGGARTYYADSVKGRFTISLDNAKNTVYLQMNSLKPEDTAVYYCNARCRWTANFDYWVQGTQVTVSS,high polyreactivity
21,QVQLVESGGGLVHAGGSLRLSCDASGFTFAGYSMGWYRQAPGKERELVAGIRSSGARTYYADSVKGRFTISRDNAKTTVYLQKNILKPEHTAVYYCAKTDGFYSGYGYWGQGTQVTVSS,low polyreactivity

row,Sequence,polyreactivity (PSR sort gate)
1,QVQLVESGGGLVHAGGSLRLSCDASGITFWAYAMGWYRQAPGKEREFVAAITVSTGSTFYADSVKGRFTISRDNAKNTVYLQMNSLKREDTALYYCAAPQDGTWWLPAGGYWGQGTQVTVSS,low polyreactivity
2,QVQLVESGGGLVHAGGSLRLSCDASGLTFAYYAMGWYRQAPGKERELVAAISWNGGRTYYADSVKGRFTISRDNAKNTVYLQMNSLKPEDTAVYYCAAQVTSSFYWGQGTQVTVSS,high polyreactivity
3,QVQLVESGGGLVHAGGSLRLSCSASGFTFYKYAMGWYRQAPGKERELVAAFSYSGGSTYYADSVKGRFTISRDNAKNTVYLQMNSLKPEDTAVYYCAARVRGTGYNSWGQGTLVTVSS,high polyreactivity
4,QVQLVESGGGLVHAGGSLRLSSAASGGIFKYNPMGWYRQAPGTERELVARISFGGSRTYYADSVKGRFTISRDNAKNTCYVQMNSLKPADTAVYYCARRVTGTLYYTGYDYWGQGTQVTVSS,high polyreactivity
5,QVQLVESGGGLVHAGGSLRLSSAASGLIFGWYAMGWYRPAPGKEREFVASIRDGGGSTYYADSVNGRFTISRDNANNTVFLEMHSLKPEDSAVYYFAADRYPWHLQYVEYDSDFWGQGTQVTVSS,low polyreactivity
6,QVQLVESGGGLVHAGGSLRVSCAASGFTFYLYTMGWYRQAPGTERELVAAINYSGGRTYYADSVKGRFTISRDYAKNSVYLQMNSLKPEDTAVYYCYPRVKNLQAYDYWGQGTQVTVSS,high polyreactivity
7,QVQLVESGGGLVHAGGSLSLSCAAYYAMGWYRQAPGKERELVAAIDDCTSTNYADSVKGRFTISRDNAKNTVYLQMNSLKPEDTAVDYCNKLSEVTYYGSKFDYWGQGTQVTVSS,low polyreactivity
8,QVQLVESGGGLVHAGGTLSLSCADSGFTYVLYGMGWYRQEPGKESELVASITWNGVGTYYADSVKGRFTIARDNAKNTVYLHMNSLKPEDTSVYFCHADDPDLASYLGVDYWGQGSQVTVSS,high polyreactivity
9,QVQLVESGGGLVKAAGSLRLSSAASGSIFSYNAMGWNRQAPGKERELVAAITFTAGNTYYADSVKGRFTISRDNAKNTVYLQMNILKPEDTAVYYCAATIQSYREDDNWGQGTQVTVSS,low polyreactivity
10,QVQLVESGGGLVKAGGSLRLISAATGSIFTFYAMGWYRQAPGKERELVATINRIGGNTYYADSVKGRFTISRDNAKNTVYLQMNSLKPEDTAVYYCAAKPTDRGYGYGSWGQGTQVSVSS,low polyreactivity
11,QVQLVESGGGLVKAGGSLRLSCAASFFFYDMGWYRQAPGKERELVAAISWRGDTTYYADSVKGRFTISRDNAKNTVYLQMNSLKPEDTAVYYCAADYYGNVVYPSYYWGQGTQVTVSS,high polyreactivity
12,QVQLVESGGGLVKAGGSLRLSCAASGFIFLQYVMGSYRQAPVKERELVAAITSGGSTYYADSVKARFTISRDNAKNTVYLQMNSLKPEDTAVYFCATDVADNTFDALYGSDYWGQCTQVTVSS,low polyreactivity
13,QVQLVESGGGLVKAGGSLRLSCAASGIIFDYYAMGWYRQAPGKERELVAAISWDGGRTYYADSVKGRFTISRDNAKNTVYLQMNSLKPEDTAVYYCNKDYWYGYSDFDYWGQGTQVTVSS,low polyreactivity
14,QVQLVESGGGLVKAGGSLRLSCAASGLIFIAYDMGWYRQAPGKERELVAAISSSGGSTYYADSVKGRFTISRDNAKNTVYFQMNSLKPEDTAVYYCASDTTKLQGVEGDYWGQGTQGTVSS,low polyreactivity
15,QVQLVESGGGLVKAGGSLRLSCAASGLIFRRNAMGWYRQAPGKERELVATINFRDTTRYADSVKGRFTISRDNAKNTVYFQMNSLKPEDTAVYYCATEWPERDWWVHKMDYWGQGTQVTVSS,low polyreactivity
16,QVQLVESGGGLVKAGGSLRLSCAASGLTFRVYAMGWYRQAPGKECELVATISRTGSTTYAESVQGRFTISRDNAKNTVYLQMNSLKPEDTAVYYCNARYYFLLWDSLAREYWGQGTQVTVTS,high polyreactivity
17,QVQLVESGGGLVKAGGSLRLSCAASGRIFWHNAMGWYRQAPGNERELVAAITGGGSTYYADSVKGRFTISRDNAKNTVYLQMNSLKPEDTAVYYCATLGSLRYYWPGYDYWGQGTQVTVSS,low polyreactivity
18,QVQLVESGGGLVKAGGSLRLSCAASGRIFYWYALGWYRQAPGKEREFVAVISQGGGSTRYADSVKGRFTISRDNAKNTVYLHMNSLKPEDTAVYYCAASHSRWRQGYGYWGQGTQVTVSS,high polyreactivity
19,QVQLVESGGGLVKAGGSLRLSCAASGRNFKTYAMGWYRQAPGKERELVAAISRDGRTYYADSVKGRFTISRDNAKNTVYLQMNSLKPEDTAVYFCNKRSYRKGDYWGQGTQVTVSS,low polyreactivity
20,QVQLVESGGGLVKAGGSLRLSCAASGRTFGVYAMGWYRQAPGKEREFVAVISWSDDSTYYADSVKGRFTISRDNAKNTVYFQMNSLKPEDSAVYYCAAQTPYGMYYWRQGTQVTVSS,low polyreactivity
